These results are taken from patent CN111748032A (JIANGSU PROVINCIAL CENTER FOR DISEASE CONTROL AND …, dated 2020).

The labels stand for the following.
B1: JS05 (antibody, V domains shown)
VH: EVQLLESGGGVVQPGRSLRLSCAASGFIFSSYGMHWVRQAPGKGLEWVAVIWYDGSNKYYADSVKGRFTISRDNSKNTLYLQMNSLRAEDTAVYYCARDLRGPTGWTFDYWGQGTLVTVSS
VL: ENVLTQSPATLSLSPGERATLSCRASQSVSNYLAWYQQRPGQAPRLLIYDSSNRATGIPARFSGSGSGTDFTLTISSLEPEDFAVYYCQHRSNWKITFGQGTRLEIK
B2: JS12 (antibody, V domains shown)
VH: EVQLLESGGGVVQPGRSLRLSCAASGFTFSSYGMHWVRQAPGKGLEWVAVIWYDGSNKYYADSVKGRFTISRDNSKNTLYLQMNSLRAEDTAVYYCARDGSGSYYWGSLDYWGQGTLVTVSS
VL: ENVLTQSPATLSLSPGERATLSCRASQSVSSYLAWYQQKPGQAPRLLIYGASNRATGIPARFSGSGSGTDFTLTISSLEPEDFAVYYCQQRSNWPWTFGQGTKVEIK
B3: JS13 (antibody, V domains shown)
VH: QVQLVQSGAEVKKPGSSVKVSCKASGGTFSSYAISWVRQAPGQGLEWMGGIIPIFGTANYAQKFQGRVTITADESTSTAYMELSSLRSEDTAVYYCARGGWVICSSTSCYTKYSYYGMDVWGQGTTVTVSS
VL: QSVLTQPPSVSAAPGQKVTISCSGSSSNIGNNYVSWYQQLPGTAPKLLIYDNNKRPSGIPDRFSGSKSGTSATLGITGLQTGDEADYYCGTWDSSLIARLFGGGTKLTVL
B4: JS14 (antibody, V domains shown)
VH: EVQLLESGGGVVQPGRSLRLSCAASGFTFSSYGMHWVRQAPGKGLEWVAVIWYDGSNKYYADSVKGRFTISRDNSKNTLYLQMNSLRAEDTAVYYCARDGSGSYYWGSLDYWGQGTLVTVSS
VL: not shown
B5: JS01 (antibody, V domains shown)
VH: QVQLVESGAEVKKPGSSVKVSCKASGGTFSSYAISWVRQAPGQGLEWMGGIIPIFGTANYAQKFQGRVTITADESTSTAYMELSSLRSEDTAVYYCARGGWRSSGYHDYSYYGMDVWGQGTTVTVSS
VL: not shown

In this assay the target is 重组SARS-CoV2核蛋白(NP) (SARS-CoV-2, UniProt P0DTC9 1-419). Description: double-antibody sandwich lateral flow strip, paired with JS08, recombinant NP.
For the molecule B1, the “检测限 (detection limit)” value is < 2 ng/mL.
For the molecule B2, the “检测限 (detection limit)” value is < 2 ng/mL.
The value for B3 was < 2 ng/mL.
Then B4, with < 2 ng/mL.
As to B5, the “检测限 (detection limit)” value is < 2 ng/mL.
